Experimental data published in patent publication US20100209422A1 (ROCKEFELLER UNIVERSITY, published 2010).

Tests used:
[1] = biological target: T1, protofibrillar (PF) form of Aβ42 (human); assay: SPR (BIAcore), ratio of PF binding to LMW binding
T1 construct: also called PF Aβ42; protofibril form of Aβ
Method: (§1) The purified monoclonal antibodies listed in Table 1 (below), were immobilized to a BIAcore sensor chip in accordance with publish protocols. (Nice, et al. BioEssays 21: 339-352 (1999)). The high sensitivity of the BIAcore optical response quantifies a change in reflectivity and a baseline response for the ligand alone is generated. The interaction analysis is performed as the analytes, the LMW form or the PF form of […], are injected in solution over the sensor chip and the change in surface plasmon resonance generates a response identifying the specificity of each antibody's ability to bind LMW and PF Aβ42. Both the 13C3 and the 19A6 antibodies all bound to the PF form of Aβ 42 with higher specificity than the LMW form.
Automated BIAcore systems, which use the detection principle of Surface Plasmon Resonance, were used in these experiments.

[2] = biological target: T1, protofibrillar (PF) form of Aβ42; assay: SPR (BIAcore), ratio of PF binding to LMW binding; remark: listed apart in the source
Method: as §1

T1 sequence (peptide, as listed by the source): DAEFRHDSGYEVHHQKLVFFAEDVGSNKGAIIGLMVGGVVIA

B1: monoclonal antibody 13C3 (antibody, IgG1, V domains shown)
VH: QVQLQQSGPELVRPGVSVKISCKGSGYTFTDYAMHWVKQSHAKSLEWIGVISTKYGKTNYNQKFKGKATMTVDKSSSTAYMELARLTSEDSAIYYCARGDDGYSWGQGTSVTVSS
VL: DVVMTQTPLSLPVSLGDQASISCRSGQSLVHSNGNTYLHWYLQKPGQSPKLLIYTVSNRFSGVPDRFSGSGSGSDFTLKISRVEAEDLGVYFCSQNTFVPWTFGGGTKLEIKR
notes: Hybridoma ATCC PTA-8830; also called mAb 13C3; anti-Aβ antibody clone 13C3
In the case of B1, the “binding ratio (PF/LMW)” value [1] is reported as 5.3 and the “Ratio (PF/LMW)” value [2] is reported as 5.
